# Assay results as given in US20210388087A1 (Chugai, published 2021).
# T1: Human CD3eg linker (human)
# T1 construct: Single chain: epsilon and gamma subunits of human CD3 joined by a 29-mer linker, Flag-tag at the C-terminus; also called recombinant human CD3
# T1 chain: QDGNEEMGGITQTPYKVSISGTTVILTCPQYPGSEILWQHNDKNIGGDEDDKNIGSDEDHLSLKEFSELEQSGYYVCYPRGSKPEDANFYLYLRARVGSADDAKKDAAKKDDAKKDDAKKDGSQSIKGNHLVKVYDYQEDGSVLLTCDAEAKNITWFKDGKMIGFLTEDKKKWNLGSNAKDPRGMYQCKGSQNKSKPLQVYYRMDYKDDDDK
# Target: T1, Human CD3eg linker
# Assay: Biacore SPR, vs template H183/L072
row,Binder,fold change of affinity [fold]
1,"H183/L072 VH A32T (antibody, name in Kabat numbering, V domains shown) VH: QVQLVESGGGLVQPGRSLRLSCAASGFTFSNTWMHWVRQAPGKGLEWVAQIKDKGNAYAAYYAPSVKGRFTISRDDSKNSIYLQMNSLKTEDTAVYYCHYVHYASASTVLPAFGVDAWGQGTTVTVSS VL: DIVMTQSPLSLPVTPGEPASISCQASQELVHMNRNTYLHWYQQKPGQAPRLLIYKVSNRFPGVPDRFSGSGSGTDFTLKISRVEAEDVGVYYCAQGTSVPFTFGQGTKLEIK",0
2,"H183/L072 VH A54D (antibody, name in Kabat numbering, V domains shown) VH: QVQLVESGGGLVQPGRSLRLSCAASGFTFSNAWMHWVRQAPGKGLEWVAQIKDKGNDYAAYYAPSVKGRFTISRDDSKNSIYLQMNSLKTEDTAVYYCHYVHYASASTVLPAFGVDAWGQGTTVTVSS VL: DIVMTQSPLSLPVTPGEPASISCQASQELVHMNRNTYLHWYQQKPGQAPRLLIYKVSNRFPGVPDRFSGSGSGTDFTLKISRVEAEDVGVYYCAQGTSVPFTFGQGTKLEIK",0.9
3,"H183/L072 VH A32Y (antibody, name in Kabat numbering, V domains shown) VH: QVQLVESGGGLVQPGRSLRLSCAASGFTFSNYWMHWVRQAPGKGLEWVAQIKDKGNAYAAYYAPSVKGRFTISRDDSKNSIYLQMNSLKTEDTAVYYCHYVHYASASTVLPAFGVDAWGQGTTVTVSS VL: DIVMTQSPLSLPVTPGEPASISCQASQELVHMNRNTYLHWYQQKPGQAPRLLIYKVSNRFPGVPDRFSGSGSGTDFTLKISRVEAEDVGVYYCAQGTSVPFTFGQGTKLEIK",0
4,"H183/L072 VH A54G (antibody, name in Kabat numbering, V domains shown) VH: QVQLVESGGGLVQPGRSLRLSCAASGFTFSNAWMHWVRQAPGKGLEWVAQIKDKGNGYAAYYAPSVKGRFTISRDDSKNSIYLQMNSLKTEDTAVYYCHYVHYASASTVLPAFGVDAWGQGTTVTVSS VL: DIVMTQSPLSLPVTPGEPASISCQASQELVHMNRNTYLHWYQQKPGQAPRLLIYKVSNRFPGVPDRFSGSGSGTDFTLKISRVEAEDVGVYYCAQGTSVPFTFGQGTKLEIK",1
5,"H183/L072 VH A54F (antibody, name in Kabat numbering, V domains shown) VH: QVQLVESGGGLVQPGRSLRLSCAASGFTFSNAWMHWVRQAPGKGLEWVAQIKDKGNFYAAYYAPSVKGRFTISRDDSKNSIYLQMNSLKTEDTAVYYCHYVHYASASTVLPAFGVDAWGQGTTVTVSS VL: DIVMTQSPLSLPVTPGEPASISCQASQELVHMNRNTYLHWYQQKPGQAPRLLIYKVSNRFPGVPDRFSGSGSGTDFTLKISRVEAEDVGVYYCAQGTSVPFTFGQGTKLEIK",1.2
6,"H183/L072 VH A32W (antibody, name in Kabat numbering, V domains shown) VH: QVQLVESGGGLVQPGRSLRLSCAASGFTFSNWWMHWVRQAPGKGLEWVAQIKDKGNAYAAYYAPSVKGRFTISRDDSKNSIYLQMNSLKTEDTAVYYCHYVHYASASTVLPAFGVDAWGQGTTVTVSS VL: DIVMTQSPLSLPVTPGEPASISCQASQELVHMNRNTYLHWYQQKPGQAPRLLIYKVSNRFPGVPDRFSGSGSGTDFTLKISRVEAEDVGVYYCAQGTSVPFTFGQGTKLEIK",0.1
7,"H183/L072 VH A54E (antibody, name in Kabat numbering, V domains shown) VH: QVQLVESGGGLVQPGRSLRLSCAASGFTFSNAWMHWVRQAPGKGLEWVAQIKDKGNEYAAYYAPSVKGRFTISRDDSKNSIYLQMNSLKTEDTAVYYCHYVHYASASTVLPAFGVDAWGQGTTVTVSS VL: DIVMTQSPLSLPVTPGEPASISCQASQELVHMNRNTYLHWYQQKPGQAPRLLIYKVSNRFPGVPDRFSGSGSGTDFTLKISRVEAEDVGVYYCAQGTSVPFTFGQGTKLEIK",1
8,"H183/L072 VH A32V (antibody, name in Kabat numbering, V domains shown) VH: QVQLVESGGGLVQPGRSLRLSCAASGFTFSNVWMHWVRQAPGKGLEWVAQIKDKGNAYAAYYAPSVKGRFTISRDDSKNSIYLQMNSLKTEDTAVYYCHYVHYASASTVLPAFGVDAWGQGTTVTVSS VL: DIVMTQSPLSLPVTPGEPASISCQASQELVHMNRNTYLHWYQQKPGQAPRLLIYKVSNRFPGVPDRFSGSGSGTDFTLKISRVEAEDVGVYYCAQGTSVPFTFGQGTKLEIK",0.9
